In the DeepSol protein solubility set:

Test: soluble on expression in E. coli; label from the status in PepcDB or PDB records

Soluble on expression in E. coli, not soluble:
MGSDKIHHHHHHMYEEIIEKLDLQMNRMISFLSKKMRLFFQDLEKRFTNRAILLYGPRGAGKTTFLLSMARKHGFLYVSGDEILLLDVPLHDLFQEIMKNYPGIIIDEVHLLKNWSTILKVLYDSFPDKVIWTSDSSSVLLRKGISDLSRRFVLIRMPLMSFREFIHFETGKTLRKLSSPFEVSIDYAAEALKEVDLMSLFRKYRETGTRPFYVEGNFREKLMNILQKAIYYDVPHFLGTVTENHLGVMKAIVGHLLHSKIPTINVESMCREWGVGKQKFYQLLQTMEEIELVNIVRKKRVEKPFSKGEKIFLSDPAMYYAFEGEIGNFREAFVVFALKEIGKIYAVKNEEEGDYVFEGIKIEVGGKSKKKKSSDFVIRDDVDLPVRNVIPMWMLGMLW
MGSDKIHHHHHHMYGKTELMMSNACGLDFGTSNSTVGWTRPGHPAALLPLEDGKLTLPSVIFFHAEDPLVSYGRAALDDYLAGYEGRLMRSLKSLLGTSMMEDSTEVMGQAMPFRKLLAHFIGELKARAERSAGTTFTRAVLGRPVFFIDEDPAADRLAEQTLAEIARDAGFRDIEFQYEPIAAAFDYEAKISDEELVLVVDIGGGTSDFSLVRLSPERAKRIDRREDILANGGVHIGGTDFDRALSLARAMPLLGLGSKLRSGKEMPSSQYFDLASWHTINLVYTRKAWSIVMDNYRDAADTVKLDRLIRLIRERAGHWLAIQMEAAKIALSGVDRTDVDLHRIEPELMLSITRDEFDESIGKLVAKTEKTVTDMLASAGVDGASVDTILFTGGSSSVPMLRHQLGQLLPRARRVEGDLFGGIGSGLALDAARKFG
MGSDKIHHHHHHMYIQIVFAVKGRNSLIHPSWENELHKYMTGFIQNNGQKLLAINGMPDHIHILIGMKPSCCLSDLIRELKKSSSSFIKDKKLSPYAFQWQEGYGAFSYSHSNLNQVIAYIMNQKEHHKKRTFKEEYLEFIQKFELEYNPKNLFEWMD
MGSDKIHHHHHHMYKFNPQRIQIGISACLLGEKVRFDGGHKNSTYCNQEIKQFFDYVPICPEMAIGLGAPRKSIRLVRDGETILVQSGDGSLDVTDKLNEYSENKVEELDFLGGYLLCAKSPTCGMERVTEYKIGTNNGSKSGIGVFARKLMERYPLLPVEEEGRLHDMVLRENFFTRVYAYHDWHLMKHEGLTKHKLVKFHSRYKYLLMAHSPTWYRELGPIVANIEDLEQSATRYFEGFMTALKINATRKNHTSTLQHIQGYFKKHLSKEQKTELSEAIMKYREGLLPLLVPITLINHYLREFPTPYIEEQVYLNPHPEALKLRYAY
MGSDKIHHHHHHMYKLNQNETPLFNALMEYVNRDTIPFHVPGHKKGNGIDKEFKNFIGENPFKIDVTVFKLVDSLHHPTGPIKKAQELAADAYGSKAAFYSVNGTSGAIQGMILSVVGDGDKIIVPRNVHKSVTAGIILSGAVPVYMHPEVDRRVGIAHGVSPETVGETLKNNPDAKAVLLINPTYYGVSTDIKKIADIVHSYDIPLIVDEAHGPHLSFNDRLPVSALKAGADMCAQSTHKIIGALTQMSLLHVNSDRIDMNRVQQIMNLLQTTSPSYILMASMDCARRQIALHGKELLDGTIDLCNYARREINKIPGFYCFGEEVLGKPGSYAFDPTKLTITCTDLGITGYDLDMLLANDYHIQVELSDLYNVLAVGSFGDTKENIDALINALRQISKSISSTVKNKKNSFIDIPDVPERILSPRDAFNGAKESMLIKDSVGKTSGEFLMAYPPGIPVLCPGEIITQEIIDYVSDLKAAGLYVQGTEDPDVNYIKVLK
MGSDKIHHHHHHMYKYKFTVFTPTYNRAHLLENLYNDLKAQTYDFNDFEWLIVDDGSSDSTKELVEKFISENKLNIRYIYKENGGKHTAINLGVKNADGELFFIVDSDDGLIKDSLEIANDEWDSLENKEGFSGVVGLCVYPSGDLIGTEMPEDKKICHFADLYFKYGVKGDKSIVFVTDELIKFPFPERKEVRFLPESVVWNEMSKYYKVICVNKPMIIRDYLDDGLTKNILSKNALRGRALEFLYLINQNTYPLSRYPYMWIKNYINLARYSLLSDSHYFGELRKVSDKLLYLALFPLGYYKYIGQRKLVSK
MGSDKIHHHHHHMYQVIANFSFQNFEHDPVILINQIINQWRYNGQIIGREFSVTYHTQPSAHFQVRLATPEQISLMPEWNNDQVTEALSQAAEKGVEFESFEIIGRDYQAEQTSENSNARFYILYTTHLDSCSPLYNGDDFCPVPLYRLLQKDQSLAQALIKWQENWQACDQLQMNGTILEQPALNEISEIDSNLAQLGIKLCREVERVTQVPTYYYLYRLGTDEAVEYQRKCSSCGAEWRLTEPLHQIFHFKCDKCRLISNLSWQLQK
MGSDKIHHHHHHMYRLMDRQQMPFLFRFLSDSELYAFKDGQIISTFNKCGLFFCRKGNVEVSLEDKHFQINPGDVYIYMASTLVHLLHKSEDAEGVMVEVDLDYIIPIVNRVINVENQLFMRKHPCISLSDKQRAHLEYLLDNLRERIEAEDVQEVNLQQQRLTLELIKSMGQTFCYEILNMYFANQPMQPLPQNKKDVIFQNFMLALFRLYRKERDVAYYARMQHITPRYFSTIIKEKSGNSALQWIVQMVITEAKQLLEGSDLSIKEIADQLNFPTQSFFGKYFKQYVGISPKEYRKGKLRIKDGI
MGSDKIHHHHHHMYVAVKGGETAIANAHSLLADRRRGDRSLPTMTVDQIVEQLTLAVGRVMAEASLYDRKLAALAIKQARGDMIEAIFLLRAYRTTLPRFGLSEPVDTGAMRIERRISATYKDLPGGQLLGPTFDYTHRLLDPSLLEEGDVEPPVQKIPTSEAAMRVSDILREEGLIEPDGDMPEDHLAGDITRQPIEFPMARDLRLQSLARGDEGFLLALAYSTQRGYGRSHPFAGEIRLGEVEVELDVPELGFAVSLGRIQVTECQMVNQFKGSSKAPPQFTRGYGLVFGQSERKAMAMSLVDRSLRAEELGEDITAPAQDQEFVLSHCDNVQATGFVEHLKLPHYVDFQAELDLVRRMRSEHEQARQQGLDLSEAAE
MGSDKIHHHHHHMYYGSIITVLSSDKNKLTGIAEKLGKLHETAKTKIYYRKKGEYIRSILLTTEYPEKIIDLAEALSLSSTAILYIPETLTWMDGELALLIDSLNTHNKIVISNLDQGKINNILGSLSSFTKFDLYNDIPDLSETEEEDKGIVYVDRVFTVKGVGTVVTGFSFTNVEVHEKLVALPYNKEVEIKSIQVLDEDQKSVSTGVRIGFALKNVKEEEIEDLLYLVKPNVKVVKEIEGQITNYKWSTINQGQNHIIVKGHGIAANIKVDNQKAKIMSSVPIPIVDNRILVLNVNVRQGKPRVAGYISL
MGSDKIHHHHHHNEAQVSAVKQFVEGFNQKNVQSMQSHTTDDVKWFSISEGAMALETSDKEELGEAMQNYFSGYSSAHAKIVNLVNSGDFISTVEQVKWQNEGKWFMQCSLGVYRFKQNKIASVWYYPAHVCDATNAQVN
MGSDKIHHHHHHQDGNQPALVDALVVNARTPGPAWWSVSKGDKKVWVLGIGAPVPADAKWDGRAFERRVKASRQLILVPPSKTRFEKNTIKADRKWLDELTEAERARLAEVATQTGRKLEFYTLFRPNFAGLLINSELQARAKPKMGKLLDLSVRARRLGARLVPAGGLDAQAMKASFQVGGKDSLICLRWAMRPRDAAALREQRAQAWMRGDVRTLLVGPAAYDPCVQAMAAMQASLENNEGALANTIAATLDRGDGAVALVGLVPLLREGGVLDQLRKRGYLIETPAQMDDED
MGSDKIHHHHHHQSLKLSDNVVRIGVLTDLSGVYSELSGQGSVKAAQMAAADFMAMNPSFRGKVQVIGVDHQNKADVASNKAAEMIDRQKVDVLMDLPTSSAALAASEVARQKKVPVMVVTGGTTALTNEKCNKYTFHYAYDNYMLANGTGTAVTKRGGNSWYIIYPNYAFGQDLNRQMTAAIQENGGKLVAPSDATPFPNTDFSSYLLKAQGLKPKVFGTMQAGADLVNVVKQYNEFGLRQQGIGLGIGLLFETDVAALGQDAFAGALATVPWYWNMDQRARDWAAKFEKAFGKKPTWAQAGVYSATMTYLQAVARAKSDDGDAVVKALEGHRFSDFFARNAYVRPQDHRVMLDVYTVQVKPKAQAKENGDYFNKVATIPAARAFMPLSESKCRM
MGSDKIHHHHHHQTPAPLAEWQFSAGIPLEKLFEDTIPDWEVRLGGAAMVRPRYDGSSNYIVVGGPSIDIRYRDIAFASIGEGLGVNVLRGKNWRAGIALSYNLGRRAKETSPLLDGMENINPAPEAKLFAEYAVSKEFPLVMRVDARRSLGGSDGWIGDIGAYMPMPGSSEKFFWFAGPTMTLADSRYMNAWYGVSASQARPGRPQFSPSGGVRSYGFGVSAVWFFDKHWFATTDVAVMQLVGDAKRSPLTQSSTNGVFDVSVNYQF
MGSDKIHHHHHHSCGDKMNKNTGALEFDSIQVNETAHLFGDTAKPACNLTINFAYPVKSTDNKLKDSLNSYFIAACFGEGYIGEKPAQVVKEYTEHYVKEYRTDLEPMYAEDEKNKESEGSIGAWYSYYKGIESHVQLYYKNLLVYRINYNEYTGGAHGIYMTTFLNMDLINLRPLKLDDIFTGDYKEALTDLLWNQLMADKKVTTHEALEDMGYGSTGDIAPTENFYLDKDGITFYYNVYDITPYAMGPVEIKIPYEMMEHMLGSNPIIGEMKSK
MGSDKIHHHHHHSDIATSVTQGGEQRLADGGYFELGASVYGTNQLDIRQTEHESIQPSLLISGMYQYKGLFAEMVHQSQDGINFGINLWSSNNWSLDLLAVNYQGSAGRSENTELSQLDEDGRNAYLMETDSIFIGAGFRVTRYWDDHYVFQYRIVSDYFDDQGISTTARLGKSWQVRNWNFHALASIEYASTKLSRNLFGVESMEATELFPEYRPSSAVTYGMELGVAYPLSEKLVFRTVYRLNVLSKEITASPFNQADYGSFFNASFSYVF
MGSDKIHHHHHHSGKLRKSNESGAMRAFRDGEVTIMVNVNLFTEGIDLPGVDVCIMLRPTASLSLYLQFAMRALNPRDGKRAILIDHVGNHIRHGLPNDDRYWTLEGVDKRKSSSKEKEEAPKTCENCFATFYRDRIVDGKCPYCGEPLKIIKDIEKEATNETLTLINQGMEFVSIRGEMIEVTREEALVYKRVKRYGKKYERCESLAELKAFRIIHGYAPGWLWHKQKELNLWRN
MGSDKIHHHHHHTYDYFEDETNYQVFVPEVLNKTVSDCRVLVYNDAGTLVGARYATSPWDKDPRMEAGLFSFRLTPGEYKVYCYTNTDSLTFVDGQHLDASAFILKSSSTGPNRYVQPSDILFQKFVPAIVHPGILQTDTAALERYTGRITVRFKKFPGDVSHIKKVQLLAEGAPVMQYLKNDTLTGRLTPEDKMFHFGTLPVQEKADVLEVDHRFIPSVENEPMRLNYTFLDENGAVVNHLPVEVTERETGLPLRLLHGKRIIIEIESYTVIKISVVGWNEDIESGDTDME
MGSDKIHHHHHHVAKPKTVYICSECGGQSPKWAGQCPSCNAWNTLVESVAEAPSTHRFQSLAKSAPVRRLADIEASDVPRFTTGVSEFDRVLGGGLVPGGVVLIGGDPGIGKSTLLLQSLAEIAADKRALYISGEESAAQIALRAQRLSLLEPGSRASELQLLAEIQLEKIQATIAEQRPDVAVIDSIQTVYSDALTSAPGSVAQVRECAAQLTRIAKQSGTTIIMVGHVTKEGALAGPRVLEHIVDTVLYFEGDTHSSYRLVRAIKNRFGAVNELGVFAMTERGLRGVANPSALFLSQHEQSVAGSCVLVTQEGTRPLLVEVQALVDAANAPNPRRLAVGLEQNRLAMLLAVLHRHAGIACFDQDVFLNAVGGVKITEPAADLAVLLAIHSSMRNKPLPKGLVVFGEVGLAGEIRPSPRGQERLKEAAKLGFSVAVIPRANAPKQPIEGLQVVAVERIEQAIDRVRTLE
